Measured values as given in patent publication US20130330359A1 (AbbVie / Abbott, published 2013).
Blank lines part the entries; values can stand above or below the binder they belong to.

Experiments:
[1] = biological target: T1, carrier free RGMa (R&D Systems) (UniProt Q96B86 48-422, limits assumed); assay: EIA on coated carrier-free RGMa (summary of specificity)
T1 construct: also called RGMa-CF
T1 sequence (looked up): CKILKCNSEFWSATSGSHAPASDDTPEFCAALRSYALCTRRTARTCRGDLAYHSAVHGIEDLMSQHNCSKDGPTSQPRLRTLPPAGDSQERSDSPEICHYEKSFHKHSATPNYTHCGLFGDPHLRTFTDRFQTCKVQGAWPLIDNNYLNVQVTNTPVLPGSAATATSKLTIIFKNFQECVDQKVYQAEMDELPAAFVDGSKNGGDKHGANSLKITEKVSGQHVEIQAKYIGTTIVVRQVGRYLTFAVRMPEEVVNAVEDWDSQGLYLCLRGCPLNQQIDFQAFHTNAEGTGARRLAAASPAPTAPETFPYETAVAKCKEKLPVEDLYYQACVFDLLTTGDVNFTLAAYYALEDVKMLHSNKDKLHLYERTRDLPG
Method: (§1) Clones were then tested for cross-reactivity with RGMa and RGMb by EIA. Carrier free RGMa, RGMb, or RGMc (R&D Systems) was coated on the solid phase of micro-titer EIA plates at 0.5 ug/mL. After the antigen had been coated on the solid phase, it was removed and any open binding sites on the plates were blocked using fish gel block solution. The wells were washed with distilled water following this incubation. Cell supernatants and control reagents were added to the blocked plates and allowed to incubate at room temperature for at least one hour. The negative control was a purified mouse mAb from a different antigen system. The positive control for RGMa, RGMb, & RGMc was a goat anti-RGMa, RGMb, or RGMc polyclonal antibody (R&D Systems). Following this incubation, the solutions were removed from the plates and they were washed with distilled water. Donkey anti-Goat IgG-HRPO diluted to approximately 200 ng/mL in block solution was added to the plates with the positive control test samples and goat anti-mouse IgG-HRPO (Jackson Immunoresearch) diluted to approximately 200 ng/mL in block solution was added to the plates with the fusion #1 test samples. All plates were allowed to incubate for 30 minutes at room temperature. The plates were washed with distilled water and o-phenylenediamine substrate was used as the chromogen to generate signal. Plates were read at 492 nm and the results were analyzed.

[2] = biological target: T2, carrier free RGMb (R&D Systems) (UniProt Q6NW40 46-413, limits assumed); assay: EIA on coated carrier-free RGMb (summary of specificity)
T2 construct: also called RGMb-CF
T2 sequence (looked up): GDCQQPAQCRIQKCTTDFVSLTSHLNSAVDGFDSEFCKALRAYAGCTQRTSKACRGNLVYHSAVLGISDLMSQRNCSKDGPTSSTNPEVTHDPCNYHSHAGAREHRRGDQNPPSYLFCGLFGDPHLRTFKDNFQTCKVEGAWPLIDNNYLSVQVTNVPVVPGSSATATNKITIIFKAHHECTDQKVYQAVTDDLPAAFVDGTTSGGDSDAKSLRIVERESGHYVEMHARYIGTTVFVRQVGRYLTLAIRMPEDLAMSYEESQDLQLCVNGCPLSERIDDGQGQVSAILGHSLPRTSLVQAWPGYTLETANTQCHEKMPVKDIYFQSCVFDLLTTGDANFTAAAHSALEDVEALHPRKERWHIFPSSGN
Method: as §1

[3] = biological target: T3, RGMc antigen: amino acids 33-391 of RGMc followed by human Fc (human, UniProt Q6ZVN8 33-391); assay: chemiluminescence immunoassay: supernatant mAb captured on sheep anti-mouse IgG Fc, RGMc-huFc at 200 ng/mL, acridinium-labeled goat anti-RGMc detection
T3 construct: also called RGMc-huFc; RGMc-Fc; not shown: human Fc
T3 sequence: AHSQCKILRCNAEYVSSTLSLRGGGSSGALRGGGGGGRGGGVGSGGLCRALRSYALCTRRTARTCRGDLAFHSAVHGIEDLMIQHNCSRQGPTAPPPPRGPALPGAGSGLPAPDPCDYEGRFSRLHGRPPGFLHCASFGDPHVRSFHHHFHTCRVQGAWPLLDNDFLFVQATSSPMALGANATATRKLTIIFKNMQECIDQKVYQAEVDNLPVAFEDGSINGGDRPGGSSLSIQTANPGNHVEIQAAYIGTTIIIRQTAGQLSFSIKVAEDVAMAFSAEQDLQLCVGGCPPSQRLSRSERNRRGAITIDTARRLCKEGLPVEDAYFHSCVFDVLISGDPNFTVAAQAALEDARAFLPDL
Method: Cell supernatant samples were analyzed for anti-RGMc antibodies by Chemiluminescence immunoassay (CIA). Sheep anti-mouse IgG Fc (Jackson Immunoresearch, West Grove, Pa.) was coated on 96 well micro-titer CIA plates (NUNC) at 5 ug/mL. After the capture reagent had been coated on the solid phase, it was removed and any open binding sites on the plates were blocked using a Fish gel/PBS (2% v/v) block solution. The wells were washed with distilled water and cell supernatants were added to the blocked plates and allowed to incubate at room temperature for at least one hour. The anti-mouse IgG Fc captures the anti-RGMc mouse antibody from the supernatant. Following the incubation, the supernatants were washed off using distilled water. A mouse/human IgG chimeric antibody (Abbott Laboratories) diluted in fish gel block to 5 ug/ml was added to each well and incubated for approximately 30 minutes at room temperature to block any captured mAbs that are specific for human IgG Fc portion of the immunogen. Following the incubation, the human IgG blocking solution was washed off using distilled water. RGMc-huFc antigen was then added to the plates at 200 ng/mL in fish gel block and incubated for 30 minutes at room temperature. Following this incubation, the antigen was washed from the plates using distilled water. Acridinium labeled goat anti-RGMc polyclonal antibody (R&D Systems, Minneapolis, Minn.) was diluted to 200 ng/ml in fish gel block, then added to the plates and allowed to incubate for 30 minutes at room temperature. The plates were washed with distilled water then processed on the Microbeta Jet instrument (Perkin Elmer, Waltham, Mass.). The Microbeta Jet adds Architect© Pre-Trigger and Trigger solutions (Abbott Laboratories). The plates are then read for flash chemiluminescence in luminescent counts per second (LCPS). […] The positive control (PC) used in this assay was spent medium from unfused splenocytes harvested from mouse #814 that were cultured for 7 to 10 days at 37° C.

[4] = biological target: T4, carrier free RGMc (R&D Systems) (human, UniProt Q6ZVN8 36-400); assay: … two-step sandwich chemiluminescent assay; 1A-2493-121 on microparticles as capture, goat polyclonal AF3720 conjugate as detection
T4 construct: also called RGMc-CF
T4 sequence (looked up): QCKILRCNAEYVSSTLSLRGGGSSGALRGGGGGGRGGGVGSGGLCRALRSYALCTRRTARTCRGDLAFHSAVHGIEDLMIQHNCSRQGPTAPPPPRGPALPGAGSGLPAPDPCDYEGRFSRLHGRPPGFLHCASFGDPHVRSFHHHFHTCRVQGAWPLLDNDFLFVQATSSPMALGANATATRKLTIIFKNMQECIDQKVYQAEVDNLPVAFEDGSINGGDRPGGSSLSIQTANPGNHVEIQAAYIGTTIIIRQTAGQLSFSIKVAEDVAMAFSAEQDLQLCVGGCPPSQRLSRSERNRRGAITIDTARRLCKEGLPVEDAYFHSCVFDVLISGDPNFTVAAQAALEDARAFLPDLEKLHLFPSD

[5] = biological target: T3, RGMc antigen: amino acids 33-391 of …; assay: … two-step sandwich chemiluminescent assay; 1A-2493-121 on microparticles as capture, goat polyclonal AF3720 CPSP conjugate as detection
Method: The Architect assay is a two-step assay format, wherein a 30 μl sample is mixed with 50 μl of line diluent. […] At the end of 18 minutes, unbound sample is washed away. 50 μl of R&D System Goat polyclonal AF3720 CPSP conjugate at 800 ng/mL was added to the mixture, vortexed, and incubated for 4 minutes. […] The relative light units are then measured.

[6] = biological target: T3, RGMc antigen: amino acids 33-391 of …; assay: direct EIA: RGMc-huFc coated at 1.0 ug/mL; supernatant diluted 1:125; goat anti-mouse IgG Fc-HRPO
Method: (§2) A mouse:human chimeric antibody or RGMc-huFc was coated on the solid phase of micro-titer EIA plates at 1.0 ug/mL. After the antigen had been coated on the solid phase, it was removed and any open binding sites on the plates were blocked using BSA block solution. The wells were washed with distilled water. Cell supernatants and control reagents were added to the blocked plates and allowed to incubate at room temperature for at least one hour. The negative control was a purified mAb from a different antigen system. The positive control for human IgG was a purified anti-hu IgG mAb developed against another antigen containing human IgG Fc carrier protein. The RGMc positive control is Novus mab 1C12. Following this incubation, the solutions were removed from the plates and they were washed with distilled water. Goat anti-mouse IgG Fc-HRPO (Jackson Immunoresearch) diluted to approximately 200 ng/mL in block solution was added to the plates and allowed to incubate for 30 minutes at room temperature. The plates were washed with distilled water and o-phenylenediamine substrate (Abbott Laboratories) was used as the chromogen to generate signal. Plates were read at 492 nm and the results were analyzed.

[7] = biological target: T5, mouse:human chimeric antibody (used as human IgG / human IgG Fc antigen); assay: direct EIA: mouse:human chimeric antibody coated at 1.0 ug/mL; supernatant diluted 1:125; goat anti-mouse IgG Fc-HRPO
T5 construct: also called Hu IgG; human IgG Fc portion
Method: as §2

binding result [1]: no binding
binding result [2]: no binding
LCPS [3]: 2640 LCPS
B1: 1A-2258-107 (antibody, V domains shown)
VH: EVQLVESGGGLVKPGGSLKLSCAASGFTFSDYFMFWVRQTPEKRLEWVATISDGGSYTYYSDSVKGRFTISRDNAKNNLFLQMSSLKSEDTAMYYCARDKYGDYDAMDYWGQGTSVTVSS
VL: DVVLTQSPASLAVSLGQRATISCKASQSVDYDSDSYMNWYQQKPGQPPKLLIYAASNLESGIPARFSGGGSGTDFTLNIHPVEEEDAATYYCQQSNEDPPTFGGGTKLEIKR

binding result [4]: binds
binding result [5]: binds
B2: anti-RGMc 1A-2493-121 monoclonal antibody (antibody, V domains shown)
VH: DVQLQASGPDLVKPSQSLSLTCTVTGYSITSGYSWHWIRQFPGNKLEWMAYIHYTGDSNYNPSLKSRISITRDTSKNQFFLQLTSVTTEDTATYYCALFGLSGYWGQGTLVTVSA
VL: DVLMTQTPLSLPVSLGDQASISCRSSQNIIHSNGNTYLDWYLQKPGQSPKVLIYKVSNRFSGVPDRFSGSGSGTDFILKISRVEAEDLGVYYCLQGSHVPWTFGGGTKLEIKR

binding result [1]: no binding
binding result [2]: no binding
absorbance at 492 nm [6]: 1.25
absorbance at 492 nm [7]: 0.07
LCPS [3]: 4390 LCPS
B3: 1A-2151-163 (antibody, V domains shown)
VH: EVQLQQSGPELLKPGASVKISCKASGYSFTDNTIHWVKQSQRKSLEWIGGISPRYGDIRYNVQFKDKATLTVDKSSSTAYMELRSLTSEDSAVYYCTRWDDGYYEDYAMDYWGQGTSVTVSS
VL: DILLTQSPAILSVSPGERVSFSCRASQSIGTSLHWYQQRRNGSPRLLIKYASESISGIPSRFSGSGSGTDFTLSINTVESEDIADYYCQQSNSWPYTFGGGTKLEIKR
